Reference: patent US11278600B2, “Human alpha-galactosidase variants” (Codexis, Inc., priority 2014, dated 2022)
Where a chain is given by its changes, count along the chain named. Names and notes keep the numbering of the source.

B1: SP-GLA: 19 amino acid S. cerevisae MFalpha signal peptide fused to the mature form of yeast-optimized GLA (protein)
chain: MRFPSIFTAVLFAASSALALDNGLARTPTMGWLHWERFMCNLDCQEEPDSCISEKLFMEMAELMVSEGWKDAGYEYLCIDDCWMAPQRDSEGRLQADPQRFPHGIRQLANYVHSKGLKLGIYADVGNKTCAGFPGSFGYYDIDAQTFADWGVDLLKFDGCYCDSLENLADGYKHMSLALNRTGRSIVYSCEWPLYMWPFQKPNYTEIRQYCNHWRNFADIDDSWKSIKSILDWTSFNQERIVDVAGPGGWNDPDMLVIGNFGLSWNQQVTQMALWAIMAAPLFMSNDLRHISPQAKALLQDKDVIAINQDPLGKQGYQLRQGDNFEVWERPLSGLAWAVAMINRQEIGGPRSYTIAVASLGKGVACNPACFITQLLPVKRKLGFYEWTSRLRSHINPTGTVLLQLENTMQMSLKDLL
modifications: Synthetic Polynucleotide sequence of SP-GLA (yCDS)
notes: 19 amino acid S. cerevisae MFalpha signal peptide fused to the mature form of yeast-optimized GLA
B2: 358 (protein)
chain: LDNGLARTPTMGWLHWERFMCNLDCQEEPDSCISEKLFMEMAERMVSEGWKDAGYEYLCIDDCWMAPQRDSEGRLQADPQRFPHGIRQLANYVHSKGLKFGIYADVGNKTCAGFPGSFGYYDIDAQTFADWGVDLLKFDGCYCDSLENLADGYKHMSLALNRTGRSIVYSCEWPLYMWPFQKPNYTEIRQYCNHWRNFADIDDSWASIKSILDWTSFNQETIVDVAGPGGWNDPDMLVIGNFGLSWDQQVTQMALWAIMAAPLFMSNDLRHISPQAKALLQDKDVIAINQDPLGKQGYQLRKGDNFEVWERPLSGLAWAVAIINRQEIGGPRSYTIAVASLGKGVACNPACFITQLLPVKRKLGFYNWTSRLKSHINPTGTVLLQLENTMQMSLKDLL
modifications: Synthetic Polypeptide sequence of Variant No. 358 of mature Human GLA
B3: 296 (protein)
chain: LDNGLARTPTMGWLHWERFMCNLDCQEEPDSCISEKLFMEMAELMVSEGWKDAGYEYLCIDDCWMTPQRDSEGRLQADPQRFPHGIRQLANYVHSKGLKLGIYADVGNKTCAGFPGSFGYYDIDAQTFADWGVDLLKFDGCYCDSLENLADGYKHMSLALNRTGRSIVYSCEWPLYMWPFQKPNYTEIRQYCNHWRNFADIDDSWASIKSILDWTSRNQERIVDVAGPGGWNDPDMLVIGNFGLSWNQQVTQMALWAIMAAPLFMSNDLRHISPQAKALLQDKDVIAINQDPLGKQGYQLRQGDNFEVWERPLSGDAWAVAIINRQEIGGPRSYTIPVASLGGGVACNPGCFITQLLPVKRKLGFYNWTSRLKSHINPTGTVLLQLENTMQMSLKDLL
modifications: Synthetic Polypeptide sequence of Variant No. 296 of mature Human GLA
B4: 359 (protein)
chain: B2 chain with Q181I, I322V, I376V
modifications: Synthetic Polypeptide sequence of Variant No. 359 of mature Human GLA
B5: 297 (protein)
chain: B2 chain with R44L, F100L, F217R, T221R, G230V, T369S
modifications: Synthetic Polypeptide sequence of Variant No. 297 of mature Human GLA
B6: 298 (protein)
chain: B3 chain with T66A, N247D, G343K, K362Q
modifications: Synthetic Polypeptide sequence of Variant No. 298 of mature Human GLA
B7: 299 (protein)
chain: B3 chain with T66A, N247D, Q302K, D316L, P337A, N367T, L397F
modifications: Synthetic Polypeptide sequence of Variant No. 299 of mature Human GLA
B8: Variant 73: GLA variant; K206A relative to SEQ ID NO: 5 (protein)
chain: B2 chain with R44L, F100L, T221R, D247N, K302Q, I322M, N367E, K373R
modifications: Synthetic Polypeptide sequence of Variant No. 73

Experiment: Optimization of signal peptide for secreted expression of GLA by S. cerevisiae
Assay type: biochemical
Conditions: 2-5 days of culturing; saturated after three days of growth
Text: Two strategies for secreted GLA expression were utilized, using the yeast MFa signal peptide (MF-SP) or a longer leader sequence of 83 amino acids (MF-leader) to drive secretion of a yeast codon-optimized mature human GLA. Clones were expressed from a pYT-72 vector in S. cerevisiae strain INVSc1. Both approaches provided supernatants with measurable activity on the fluorogenic substrate 4-methylumbelliferyl α-D-galactopyranoside (4-MuGal). However, the construct with the yeast MFa signal peptide provided 3-fold higher activities and was used as the starting sequence for directed evolution.
S. cerevisiae transformed with Mfleader-GLA (SEQ ID NO:7), SP-GLA (SEQ ID NO:36) or a vector control were grown in HTP as described in Example 2. Cultures were grown for 48-120 h prior to harvest of the supernatant and analysis (n=6) as described in Example 2. FIG. 1 provides a graph showing the relative activity of different GLA constructs in S. cerevisiae after 2-5 days of culturing.

**Q.** With B1 as the molecule, how does the “level of active enzyme produced in S. cerevisiae” value read?
**A.** high level of active enzyme

Same assay, conditions: S. cerevisiae INVSc1 supernatant; versus MF-leader construct

**Q.** For B1, which “supernatant activity on 4-MuGal, fold higher than MF-leader construct” value is on record?
**A.** 3 fold

Experiment: HTP-analysis of supernatants pretreated with base (MUGal hydrolysis)
Assay type: biochemical
Conditions: challenge at pH 8.2; activity of the variant/activity of Rd3BB (SEQ ID NO: 13); yeast culture supernatant
How it was run: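 GLA variants were secreted by transformed INVSc1 yeast grown 66-84 h at 30° C. Supernatants were exposed to neutral-to-basic buffers (pH 7.0-9.7) at 37° C for 1-18 h, then assayed with MUGal in acidic citrate/McIlvaine buffer, with fluorescence read after quenching.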

**Q.** With B2 as the molecule, how does the “Relative Activity of GLA Variants After Challenge at pH 8.2” value (from here on “Relative Activity … at pH 8.2”) read?
**A.** ++ (++ = >1.5 to 2.5 relative activity over Rd3BB (SEQ ID NO: 13))

**Q.** With B3 as the molecule, how does the “Relative Activity … at pH 8.2” value read?
**A.** − (− = <0.5 relative activity to Rd3BB (SEQ ID NO: 13))

**Q.** For B4, which “Relative Activity … at pH 8.2” value is on record?
**A.** +++ (+++ = >2.5 relative activity over Rd3BB (SEQ ID NO: 13))

**Q.** With B5 as the molecule, how does the “Relative Activity … at pH 8.2” value read?
**A.** − (− = <0.5 relative activity to Rd3BB (SEQ ID NO: 13))

**Q.** Which “Relative Activity … at pH 8.2” value does the source give for B6 here?
**A.** +++ (+++ = >2.5 relative activity over Rd3BB (SEQ ID NO: 13))

**Q.** With B7 as the molecule, how does the “Relative Activity … at pH 8.2” value read?
**A.** − (− = <0.5 relative activity to Rd3BB (SEQ ID NO: 13))

Experiment: HTP-analysis of supernatants pretreated with acid (MUGal hydrolysis)
Assay type: biochemical
Conditions: challenge at pH 4.0; activity of the variant/activity of Rd3BB (SEQ ID NO: 13); yeast culture supernatant
How it was run: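 Supernatants from INVSc1 yeast secreting GLA variants were challenged at 37° C. for 1-3 h in McIlvaine buffer at pH 3.3-4.3. Residual activity was then measured on 4 mM MUGal substrate stock at pH 4.8 with citrate buffer pH 4.3, over 30-180 min at 37° C. Reactions were quenched with sodium carbonate and read by fluorescence (Ex 355/Em 448 nm).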

**Q.** With B2 as the molecule, how does the “Relative Activity of GLA Variants After Challenge at pH 4.0” value (“Relative Activity … at pH 4.0” for short) read?
**A.** + (+ = 0.5 to 1.5 relative activity over Rd3BB (SEQ ID NO: 13))

**Q.** Which “Relative Activity … at pH 4.0” value does the source give for B3 here?
**A.** − (− = <0.5 relative activity to Rd3BB (SEQ ID NO: 13))

**Q.** With B4 as the molecule, how does the “Relative Activity … at pH 4.0” value read?
**A.** + (+ = 0.5 to 1.5 relative activity over Rd3BB (SEQ ID NO: 13))

**Q.** For B5, which “Relative Activity … at pH 4.0” value is on record?
**A.** − (− = <0.5 relative activity to Rd3BB (SEQ ID NO: 13))

**Q.** With B6 as the molecule, how does the “Relative Activity … at pH 4.0” value read?
**A.** +++ (+++ = >2.5 relative activity over Rd3BB (SEQ ID NO: 13))

**Q.** For B7, which “Relative Activity … at pH 4.0” value is on record?
**A.** − (− = <0.5 relative activity to Rd3BB (SEQ ID NO: 13))

Experiment: HTP-analysis of supernatants pretreated with bovine serum (MUGal hydrolysis)
Assay type: biochemical
Conditions: activity of the variant/activity of Rd3BB (SEQ ID NO: 13), yeast culture supernatant
How it was run: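 Yeast INVSc1 culture supernatants containing secreted GLA variants were mixed with bovine serum (20:80) and held 1 h at 37° C. Serum-treated samples then reacted with MUGal (4 mM stock) in citrate/McIlvaine buffer (pH 4.3/4.8) for 180 min at 37° C., were quenched with sodium carbonate, and read by fluorescence (Ex 355, Em 448 nm).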

**Q.** For B2, which “Relative Activity of GLA Variants After Challenge with Serum” value (“Relative Activity … with Serum” for short) is on record?
**A.** + (+ = 0.5 to 1.5 relative activity over Rd3BB (SEQ ID NO: 13))

**Q.** For B3, which “Relative Activity … with Serum” value is on record?
**A.** + (+ = 0.5 to 1.5 relative activity over Rd3BB (SEQ ID NO: 13))

**Q.** With B4 as the molecule, how does the “Relative Activity … with Serum” value read?
**A.** + (+ = 0.5 to 1.5 relative activity over Rd3BB (SEQ ID NO: 13))

**Q.** Which “Relative Activity … with Serum” value does the source give for B5 here?
**A.** − (− = <0.5 relative activity to Rd3BB (SEQ ID NO: 13))

**Q.** With B6 as the molecule, how does the “Relative Activity … with Serum” value read?
**A.** +++ (+++ = >2.5 relative activity over Rd3BB (SEQ ID NO: 13))

**Q.** With B7 as the molecule, how does the “Relative Activity … with Serum” value read?
**A.** − (− = <0.5 relative activity to Rd3BB (SEQ ID NO: 13))

Experiment: HTP-analysis of yeast culture supernatants, no challenge (MUGal hydrolysis)
Assay type: biochemical
Conditions: activity of the variant/activity of Rd3BB (SEQ ID NO: 13), yeast culture supernatant
How it was run: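 GLA variants were expressed in INVSc1 yeast grown in SD-Ura broth with glucose at 30° C., and culture supernatants were collected after 66-84 h. Supernatant was mixed with McIlvaine buffer pH 4.8 and MUGal (2 mM stock) in 50 mM citrate, 200 mM KCl, pH 4.6, incubated at 37° C. for 30-180 minutes, then quenched with sodium carbonate.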

**Q.** With B2 as the molecule, how does the “Relative Activity of GLA Variants After No Challenge (NC)” value read?
**A.** + (+ = 0.5 to 1.5 relative activity over Rd3BB (SEQ ID NO: 13))

**Q.** Which “Relative Activity of GLA Variants After No Challenge (NC)” value does the source give for B3 here?
**A.** + (+ = 0.5 to 1.5 relative activity over Rd3BB (SEQ ID NO: 13))

**Q.** For B4, which “Relative Activity of GLA Variants After No Challenge (NC)” value is on record?
**A.** + (+ = 0.5 to 1.5 relative activity over Rd3BB (SEQ ID NO: 13))

**Q.** For B5, which “Relative Activity of GLA Variants After No Challenge (NC)” value is on record?
**A.** − (− = <0.5 relative activity to Rd3BB (SEQ ID NO: 13))

**Q.** Which “Relative Activity of GLA Variants After No Challenge (NC)” value does the source give for B6 here?
**A.** ++ (++ = >1.5 to 2.5 relative activity over Rd3BB (SEQ ID NO: 13))

**Q.** Which “Relative Activity of GLA Variants After No Challenge (NC)” value does the source give for B7 here?
**A.** + (+ = 0.5 to 1.5 relative activity over Rd3BB (SEQ ID NO: 13))

Experiment: Thermostability of GLA variants expressed in HEK293T cells
Assay type: biochemical
Conditions: HEK293T supernatants; 30-54° C. for 1 h; residual MUGal activity

**Q.** With B8 as the molecule, how does the “increase of Tm of the enzyme” value read?
**A.** 2 °C
